For the experiment, the target named is T1, IL-18Rβ extracellular domain (his6-tagged, produced in Cos cells) (UniProt O95256 20-356, limits assumed).
T1 construct: extracellular domain; also called IL-18Rβ-ECD; signalling chain of IL-18R
T1 sequence (looked up): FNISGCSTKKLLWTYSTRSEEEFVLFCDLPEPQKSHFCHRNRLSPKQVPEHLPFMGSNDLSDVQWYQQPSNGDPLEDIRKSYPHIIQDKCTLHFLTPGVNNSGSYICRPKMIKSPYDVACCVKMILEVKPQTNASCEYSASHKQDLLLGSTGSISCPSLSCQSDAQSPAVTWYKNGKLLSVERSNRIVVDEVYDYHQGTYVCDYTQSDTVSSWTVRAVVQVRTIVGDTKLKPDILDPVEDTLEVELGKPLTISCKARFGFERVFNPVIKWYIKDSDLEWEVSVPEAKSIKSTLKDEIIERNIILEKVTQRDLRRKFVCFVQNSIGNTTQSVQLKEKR
The experiment in a line: chemical cross-linking of the two extracellular domains without ligand, SDS-PAGE, Western blot with anti-his6 mAb against his6-tagged IL-18Rβ. Background: In western blotting, separated proteins are transferred to a membrane and probed.

B1: IL-18Rα extracellular domain (produced in Cos cells) (receptor, UniProt Q13478 22-329, looked up)
chain: CTSRPHITVVEGEPFYLKHCSCSLAHEIETTTKSWYKSSGSQEHVELNPRSSSRIALHDCVLEFWPVELNDTGSYFFQMKNYTQKWKLNVIRRNKHSCFTERQVTSKIVEVKKFFQITCENSYYQTLVNSTSLYKNCKKLLLENNKNPTIKKNAEFEDQGYYSCVHFLHHNGKLFNITKTFNITIVEDRSNIVPVLLGPKLNHVAVELGKNVRLNCSALLNEEDVIYWMFGEENGSDPNIHEEKEMRIMTPEGKWHASKVLRIENIGESNLNVLYNCTVASTGGTDTKSFILVRKADMADIPGHVFTR
notes: extracellular domain; It is glycosylated (Cos cell product); also called IL-18Rα-ECD
Take B1: the binding result was “no binding”.

Source of the values: patent US20040120923A1 (ARES TRADING S A, published 2004).
